Reference: paper PMC8449409 (2021)

Biological target: T1, β-catenin (Mus musculus, UniProt Q02248)
T1 chain: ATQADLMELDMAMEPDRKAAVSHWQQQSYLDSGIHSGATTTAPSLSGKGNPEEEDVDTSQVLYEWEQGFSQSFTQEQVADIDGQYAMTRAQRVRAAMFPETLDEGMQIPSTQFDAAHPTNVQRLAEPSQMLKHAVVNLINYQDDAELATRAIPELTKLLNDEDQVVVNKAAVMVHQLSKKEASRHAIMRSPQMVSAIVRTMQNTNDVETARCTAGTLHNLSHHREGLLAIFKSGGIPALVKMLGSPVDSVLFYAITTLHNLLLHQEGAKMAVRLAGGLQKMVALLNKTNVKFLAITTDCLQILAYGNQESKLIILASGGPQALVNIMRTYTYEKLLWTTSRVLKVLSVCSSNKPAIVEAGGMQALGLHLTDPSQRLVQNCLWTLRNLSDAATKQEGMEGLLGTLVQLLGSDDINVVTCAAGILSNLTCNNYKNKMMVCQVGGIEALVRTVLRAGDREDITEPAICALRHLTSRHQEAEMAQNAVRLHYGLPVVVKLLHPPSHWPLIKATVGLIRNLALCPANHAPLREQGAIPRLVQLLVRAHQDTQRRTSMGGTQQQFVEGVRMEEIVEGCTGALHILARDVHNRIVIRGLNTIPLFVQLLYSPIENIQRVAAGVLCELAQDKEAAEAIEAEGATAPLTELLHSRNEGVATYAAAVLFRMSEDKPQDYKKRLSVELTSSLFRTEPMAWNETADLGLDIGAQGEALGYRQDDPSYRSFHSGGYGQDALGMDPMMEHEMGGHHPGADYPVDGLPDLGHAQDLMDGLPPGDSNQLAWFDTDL

Binder: DPTAPPYDSLLVFDYEGSGS [E-cadherin core-binding peptide core-binding region (20 aa)]
- Kd: > 1000 nM
